Experimental data taken from US20200024322A1 (Eli Lilly, published 2020).
Residue numbers refer to the chain shown, from its start. Numbered stars: 1 amine (or outer) side, 2 acyl side, 3 side chain; on linkers, the order of the positions; unused ones are H or OH. Square brackets hold non-standard residues; d marks the D form. Side chains are listed from the residue outwards. Ends that are not written are not given here. * marks the point of attachment. C20 diacid = O=C(O)CCCCCCCCCCCCCCCCCCC(=O)*; γGlu = O=C(O)[C@H](CCC(=O)[*:2])N[*:1]; AEEA = NCCOCCOCC(=O)O; Aib = CC(C)(N)C(=O)O

B1: Example 12 (peptide)
peptide: Y[Aib]EGTFTSDYSILLDKIAQK([AEEA-AEEA-γGlu-C20 diacid])AFIEYLIEGGPSSGAPPPS-NH2
modifications: N-terminus assumed
SMILES: CC[C@H](C)[C@H](NC(=O)[C@H](CCCCN)NC(=O)[C@H](CC(=O)O)NC(=O)[C@H](CC(C)C)NC(=O)[C@H](CC(C)C)NC(=O)[C@@H](NC(=O)[C@H](CO)NC(=O)[C@H](Cc1ccc(O)cc1)NC(=O)[C@H](CC(=O)O)NC(=O)[C@H](CO)NC(=O)[C@@H](NC(=O)[C@H](Cc1ccccc1)NC(=O)[C@@H](NC(=O)CNC(=O)[C@H](CCC(=O)O)NC(=O)C(C)(C)NC(=O)[C@@H](N)Cc1ccc(O)cc1)[C@@H](C)O)[C@@H](C)O)[C@@H](C)CC)C(=O)N[C@@H](C)C(=O)N[C@@H](CCC(N)=O)C(=O)N[C@@H](CCCCNC(=O)COCCOCCNC(=O)COCCOCCNC(=O)CC[C@H](NC(=O)CCCCCCCCCCCCCCCCCCC(=O)O)C(=O)O)C(=O)N[C@@H](C)C(=O)N[C@@H](Cc1ccccc1)C(=O)N[C@H](C(=O)N[C@@H](CCC(=O)O)C(=O)N[C@@H](Cc1ccc(O)cc1)C(=O)N[C@@H](CC(C)C)C(=O)N[C@H](C(=O)N[C@@H](CCC(=O)O)C(=O)NCC(=O)NCC(=O)N1CCC[C@H]1C(=O)N[C@@H](CO)C(=O)N[C@@H](CO)C(=O)NCC(=O)N[C@@H](C)C(=O)N1CCC[C@H]1C(=O)N1CCC[C@H]1C(=O)N1CCC[C@H]1C(=O)N[C@@H](CO)C(N)=O)[C@@H](C)CC)[C@@H](C)CC
B2: Example 14 (peptide)
peptide: Y[Aib]EGTFTSDYSILLDKIAQK([AEEA-AEEA-γGlu-C20 diacid])EFIQYLLE[Aib]GPSSGAPPPS-NH2
modifications: N-terminus assumed
SMILES: CC[C@H](C)[C@H](NC(=O)[C@H](CCCCN)NC(=O)[C@H](CC(=O)O)NC(=O)[C@H](CC(C)C)NC(=O)[C@H](CC(C)C)NC(=O)[C@@H](NC(=O)[C@H](CO)NC(=O)[C@H](Cc1ccc(O)cc1)NC(=O)[C@H](CC(=O)O)NC(=O)[C@H](CO)NC(=O)[C@@H](NC(=O)[C@H](Cc1ccccc1)NC(=O)[C@@H](NC(=O)CNC(=O)[C@H](CCC(=O)O)NC(=O)C(C)(C)NC(=O)[C@@H](N)Cc1ccc(O)cc1)[C@@H](C)O)[C@@H](C)O)[C@@H](C)CC)C(=O)N[C@@H](C)C(=O)N[C@@H](CCC(N)=O)C(=O)N[C@@H](CCCCNC(=O)COCCOCCNC(=O)COCCOCCNC(=O)CC[C@H](NC(=O)CCCCCCCCCCCCCCCCCCC(=O)O)C(=O)O)C(=O)N[C@@H](CCC(=O)O)C(=O)N[C@@H](Cc1ccccc1)C(=O)N[C@H](C(=O)N[C@@H](CCC(N)=O)C(=O)N[C@@H](Cc1ccc(O)cc1)C(=O)N[C@@H](CC(C)C)C(=O)N[C@@H](CC(C)C)C(=O)N[C@@H](CCC(=O)O)C(=O)NC(C)(C)C(=O)NCC(=O)N1CCC[C@H]1C(=O)N[C@@H](CO)C(=O)N[C@@H](CO)C(=O)NCC(=O)N[C@@H](C)C(=O)N1CCC[C@H]1C(=O)N1CCC[C@H]1C(=O)N1CCC[C@H]1C(=O)N[C@@H](CO)C(N)=O)[C@@H](C)CC
B3: Example 157 (peptide)
peptide: YXEGTXTSDXSIXLDEKAQXEFIEYLIEGGPSSGAPPPS
modifications: Aib2; αMeF(2F)6; 3Pal10; αMeL13; K17((2-[2-(2-Amino-ethoxy)-ethoxy]-acetyl)2-(γ-Glu)-CO-(CH2)18-CO2H); Aib20; C-terminal NH2
B4: Example 158 (peptide)
peptide: B3 peptide
modifications: Aib2; αMeF(2F)6; 4Pal10; αMeL13; K17((2-[2-(2-Amino-ethoxy)-ethoxy]-acetyl)2-(γ-Glu)-CO-(CH2)18-CO2H); Aib20; C-terminal NH2
B5: Example 205 (peptide)
peptide: B3 peptide with E24X
modifications: Aib2; αMeF(2F)6; 4Pal10; αMeL13; K17((2-[2-(2-Amino-ethoxy)-ethoxy]-acetyl)2-CO-(CH2)16-CO2H); Aib20; D-Glu24; C-terminal NH2
B6: Example 181 (peptide)
peptide: B3 peptide with E24X
modifications: not printed (the compound name of this Example is missing from the table of Examples 6-287)
B7: Example 206 (peptide)
peptide: B3 peptide with E24X
modifications: Aib2; αMeF(2F)6; 4Pal10; αMeL13; K17((2-[2-(2-Amino-ethoxy)-ethoxy]-acetyl)2-CO-(CH2)18-CO2H); Aib20; D-Glu24; C-terminal NH2
B8: Example 182 (peptide)
peptide: B3 peptide with E24X
modifications: not printed (the compound name of this Example is missing from the table of Examples 6-287)
B9: Example 207 (peptide)
peptide: B3 peptide with E24X
modifications: Aib2; αMeF(2F)6; 4Pal10; αMeL13; K17((2-[2-(2-Amino-ethoxy)-ethoxy]-acetyl)2-(εK)-CO-(CH2)18-CO2H); Aib20; D-Glu24; C-terminal NH2
B10: Example 189 (peptide)
peptide: B3 peptide with E24X
modifications: Aib2; αMeF(2F)6; 4Pal10; αMeL13; K17((2-[2-(2-Amino-ethoxy)-ethoxy]-acetyl)2-(γ-Glu)-CO-(CH2)18-CO2H); Aib20; Aib24; C-terminal NH2
B11: Example 203 (peptide)
peptide: B3 peptide with E16K, E24X
modifications: Aib2; αMeF(2F)6; 4Pal10; αMeL13; K17((2-[2-(2-Amino-ethoxy)-ethoxy]-acetyl)2-(γ-Glu)-CO-(CH2)18-CO2H); Aib20; D-Glu24; C-terminal NH2
B12: Example 202 (peptide)
peptide: B3 peptide with E16K, E24X
modifications: Aib2; αMeF(2F)6; 4Pal10; αMeL13; K17((2-[2-(2-Amino-ethoxy)-ethoxy]-acetyl)-(γ-Glu)-(2-[2-(2-Amino-ethoxy)-ethoxy]-acetyl)-CO-(CH2)18-CO2H); Aib20; D-Glu24; C-terminal NH2
B13: Example 15 (peptide)
peptide: H[Aib]EGTFTSDYSILLDKK([AEEA-AEEA-γGlu-C20 diacid])AQ[Aib]AFIEYLLE[Aib]GPSSGAPPPS-NH2
modifications: N-terminus assumed
SMILES: CC[C@H](C)[C@H](NC(=O)[C@H](Cc1ccccc1)NC(=O)[C@H](C)NC(=O)C(C)(C)NC(=O)[C@H](CCC(N)=O)NC(=O)[C@H](C)NC(=O)[C@H](CCCCNC(=O)COCCOCCNC(=O)COCCOCCNC(=O)CC[C@H](NC(=O)CCCCCCCCCCCCCCCCCCC(=O)O)C(=O)O)NC(=O)[C@H](CCCCN)NC(=O)[C@H](CC(=O)O)NC(=O)[C@H](CC(C)C)NC(=O)[C@H](CC(C)C)NC(=O)[C@@H](NC(=O)[C@H](CO)NC(=O)[C@H](Cc1ccc(O)cc1)NC(=O)[C@H](CC(=O)O)NC(=O)[C@H](CO)NC(=O)[C@@H](NC(=O)[C@H](Cc1ccccc1)NC(=O)[C@@H](NC(=O)CNC(=O)[C@H](CCC(=O)O)NC(=O)C(C)(C)NC(=O)[C@@H](N)Cc1c[nH]cn1)[C@@H](C)O)[C@@H](C)O)[C@@H](C)CC)C(=O)N[C@@H](CCC(=O)O)C(=O)N[C@@H](Cc1ccc(O)cc1)C(=O)N[C@@H](CC(C)C)C(=O)N[C@@H](CC(C)C)C(=O)N[C@@H](CCC(=O)O)C(=O)NC(C)(C)C(=O)NCC(=O)N1CCC[C@H]1C(=O)N[C@@H](CO)C(=O)N[C@@H](CO)C(=O)NCC(=O)N[C@@H](C)C(=O)N1CCC[C@H]1C(=O)N1CCC[C@H]1C(=O)N1CCC[C@H]1C(=O)N[C@@H](CO)C(N)=O
B14: Example 11 (peptide)
peptide: Y[Aib]EGTFTSDYSILLDSIAQ[Aib]AFIEYLLK([AEEA-AEEA-γGlu-C20 diacid])[Aib]GPSSGAPPPS-NH2
modifications: N-terminus assumed
SMILES: CC[C@H](C)[C@H](NC(=O)[C@H](CO)NC(=O)[C@H](CC(=O)O)NC(=O)[C@H](CC(C)C)NC(=O)[C@H](CC(C)C)NC(=O)[C@@H](NC(=O)[C@H](CO)NC(=O)[C@H](Cc1ccc(O)cc1)NC(=O)[C@H](CC(=O)O)NC(=O)[C@H](CO)NC(=O)[C@@H](NC(=O)[C@H](Cc1ccccc1)NC(=O)[C@@H](NC(=O)CNC(=O)[C@H](CCC(=O)O)NC(=O)C(C)(C)NC(=O)[C@@H](N)Cc1ccc(O)cc1)[C@@H](C)O)[C@@H](C)O)[C@@H](C)CC)C(=O)N[C@@H](C)C(=O)N[C@@H](CCC(N)=O)C(=O)NC(C)(C)C(=O)N[C@@H](C)C(=O)N[C@@H](Cc1ccccc1)C(=O)N[C@H](C(=O)N[C@@H](CCC(=O)O)C(=O)N[C@@H](Cc1ccc(O)cc1)C(=O)N[C@@H](CC(C)C)C(=O)N[C@@H](CC(C)C)C(=O)N[C@@H](CCCCNC(=O)COCCOCCNC(=O)COCCOCCNC(=O)CC[C@H](NC(=O)CCCCCCCCCCCCCCCCCCC(=O)O)C(=O)O)C(=O)NC(C)(C)C(=O)NCC(=O)N1CCC[C@H]1C(=O)N[C@@H](CO)C(=O)N[C@@H](CO)C(=O)NCC(=O)N[C@@H](C)C(=O)N1CCC[C@H]1C(=O)N1CCC[C@H]1C(=O)N1CCC[C@H]1C(=O)N[C@@H](CO)C(N)=O)[C@@H](C)CC

target: T1, human glucagon receptor (human, UniProt P47871 26-477); test: SPA, [125I]-Gcg displacement, hGcgR membranes
T1 construct: whole, on cells; Used as crude membranes of stably transfected HEK293 cells; also called hGcgR; hGLcgR
T1 sequence (P47871 26-477): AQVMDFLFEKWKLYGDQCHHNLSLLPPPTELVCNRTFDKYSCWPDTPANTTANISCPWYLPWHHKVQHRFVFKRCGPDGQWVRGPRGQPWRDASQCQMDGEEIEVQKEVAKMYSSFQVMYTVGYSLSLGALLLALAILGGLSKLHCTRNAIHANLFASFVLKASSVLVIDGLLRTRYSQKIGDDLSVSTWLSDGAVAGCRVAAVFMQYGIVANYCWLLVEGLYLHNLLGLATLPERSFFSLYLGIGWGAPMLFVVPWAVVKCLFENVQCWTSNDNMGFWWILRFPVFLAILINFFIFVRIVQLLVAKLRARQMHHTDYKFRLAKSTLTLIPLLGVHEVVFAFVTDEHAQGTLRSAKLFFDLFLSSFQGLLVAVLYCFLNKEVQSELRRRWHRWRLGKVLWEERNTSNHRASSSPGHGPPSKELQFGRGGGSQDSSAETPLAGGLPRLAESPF

| Binder | Ki |
| --- | --- |
| B1 | 684 nM |
| B2 | 160 nM |
| B3 | 179 nM |
| B4 | 285 nM |
| B5 | 438 nM |
| B6 | 413 nM |
| B7 | 176 nM |
| B8 | 565 nM |
| B9 | 74.2 nM |
| B10 | 146 nM |
| B11 | 845 nM |
| B12 | 394 nM |
| B13 | 130 nM |
| B14 | 174 nM |

target: T2, human GLP-1 receptor (human, UniProt P43220 24-463); test: SPA, [125I]-GLP-1 displacement, hGLP-1R membranes
T2 construct: whole, on cells; Used as crude membranes of stably transfected HEK293 cells; also called hGLP1R; hGLP-1R

| Binder | Ki |
| --- | --- |
| B1 | 12.9 nM |
| B2 | 29.6 nM |
| B3 | 8.97 nM |
| B4 | 11.8 nM |
| B5 | 3.05 nM |
| B6 | 7.28 nM |
| B7 | 5.27 nM |
| B8 | 4.64 nM |
| B9 | 1.37 nM |
| B10 | 8.81 nM |
| B11 | 3.9 nM |
| B12 | 5.38 nM |
| B13 | 2.19 nM |
| B14 | 15.7 nM |

target: T3, human GIP receptor (human, UniProt P48546 22-466); test: SPA, [125I]-GIP displacement, hGIPR membranes
T3 construct: whole, on cells; Used as crude membranes of stably transfected CHO cells; also called hGIPR
T3 sequence (looked up): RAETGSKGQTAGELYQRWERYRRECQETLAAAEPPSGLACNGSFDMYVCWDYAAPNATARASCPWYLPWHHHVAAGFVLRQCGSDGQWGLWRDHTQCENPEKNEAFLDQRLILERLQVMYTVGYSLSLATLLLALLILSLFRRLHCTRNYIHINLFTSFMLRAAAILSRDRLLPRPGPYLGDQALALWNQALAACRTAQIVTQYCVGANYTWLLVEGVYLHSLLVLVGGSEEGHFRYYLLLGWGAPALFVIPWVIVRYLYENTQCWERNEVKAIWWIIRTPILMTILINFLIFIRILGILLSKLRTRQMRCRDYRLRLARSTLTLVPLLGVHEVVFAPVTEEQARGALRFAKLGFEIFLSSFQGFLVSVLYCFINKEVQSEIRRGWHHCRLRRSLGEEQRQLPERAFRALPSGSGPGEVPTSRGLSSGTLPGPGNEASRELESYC

| Binder | Ki |
| --- | --- |
| B1 | 0.167 nM |
| B2 | 0.0494 nM |
| B3 | 0.0937 nM |
| B4 | 0.114 nM |
| B5 | 0.0367 nM |
| B6 | 0.145 nM |
| B7 | 0.0814 nM |
| B8 | 0.0669 nM |
| B9 | 0.0786 nM |
| B10 | 0.128 nM |
| B11 | 0.0337 nM |
| B12 | 0.0579 nM |
| B13 | 0.284 nM |
| B14 | 0.226 nM |
